In patent US20130143793A1 (ZEALAND PHARMA A S, published 2013):
Changes are numbered by the printed parent chain. Bridge positions count the residues as written; N and C are the ends. Square brackets hold non-standard residues; d marks the D form. Ends that are not written are not given here. Orn = NCCC[C@H](N)C(=O)O

T1: human CCK-B receptor (human, UniProt P32239 1-447)
T1 sequence (looked up): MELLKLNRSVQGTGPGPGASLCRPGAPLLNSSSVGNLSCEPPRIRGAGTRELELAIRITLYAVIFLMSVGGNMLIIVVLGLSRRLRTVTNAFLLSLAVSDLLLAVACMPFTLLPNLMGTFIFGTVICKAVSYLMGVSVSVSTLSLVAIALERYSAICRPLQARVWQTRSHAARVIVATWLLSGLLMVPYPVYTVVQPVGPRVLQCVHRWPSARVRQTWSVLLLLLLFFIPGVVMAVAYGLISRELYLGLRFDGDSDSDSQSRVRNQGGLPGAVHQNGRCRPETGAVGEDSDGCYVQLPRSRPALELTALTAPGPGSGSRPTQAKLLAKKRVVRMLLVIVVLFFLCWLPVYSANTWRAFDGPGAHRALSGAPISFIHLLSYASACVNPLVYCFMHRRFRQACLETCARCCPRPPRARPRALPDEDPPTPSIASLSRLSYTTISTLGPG

B1: [Glu9,Leu14,Phe25,Tyr13]Exendin-4(1-27)-Orn-Orn-[Leu2]Gastrin4 (peptide)
peptide: HGEGTFTSELSKYLEEEAVRLFIEFLK[Orn][Orn]WLDF-NH2
modifications: N-terminus assumed
SMILES: CC[C@H](C)[C@H](NC(=O)[C@H](Cc1ccccc1)NC(=O)[C@H](CC(C)C)NC(=O)[C@H](CCCNC(=N)N)NC(=O)[C@@H](NC(=O)[C@H](C)NC(=O)[C@H](CCC(=O)O)NC(=O)[C@H](CCC(=O)O)NC(=O)[C@H](CCC(=O)O)NC(=O)[C@H](CC(C)C)NC(=O)[C@H](Cc1ccc(O)cc1)NC(=O)[C@H](CCCCN)NC(=O)[C@H](CO)NC(=O)[C@H](CC(C)C)NC(=O)[C@H](CCC(=O)O)NC(=O)[C@H](CO)NC(=O)[C@@H](NC(=O)[C@H](Cc1ccccc1)NC(=O)[C@@H](NC(=O)CNC(=O)[C@H](CCC(=O)O)NC(=O)CNC(=O)[C@@H](N)Cc1c[nH]cn1)[C@@H](C)O)[C@@H](C)O)C(C)C)C(=O)N[C@@H](CCC(=O)O)C(=O)N[C@@H](Cc1ccccc1)C(=O)N[C@@H](CC(C)C)C(=O)N[C@@H](CCCCN)C(=O)N[C@@H](CCCN)C(=O)N[C@@H](CCCN)C(=O)N[C@@H](Cc1c[nH]c2ccccc12)C(=O)N[C@@H](CC(C)C)C(=O)N[C@@H](CC(=O)O)C(=O)N[C@@H](Cc1ccccc1)C(N)=O
B2: [Arg12,27,Leu14,Lys24,Phe25,Tyr13]Exendin-4(1-27)-Peg3-[Leu4]Gastrin6 (peptide)
peptide: HGEGTFTSDLSRYLEEEAVRLFIKFLR[Peg3]YGWLDF-NH2
B3: Side chain-cyclo([Glu16,Lys20]Exendin-4(1-28)-Peg3-Peg3-[Leu4]Gastrin6 (peptide)
peptide: HGEGTFTSDLSKQMEEEAVKLFIEWLKN[Peg3][Peg3]YGWLDF-NH2
modifications: lactam 16-20
B4: [Arg12,27,Leu14,Lys20,Phe25,Tyr13]Exendin-4(1-27)-Peg3-[Leu4]Gastrin6 (peptide)
peptide: HGEGTFTSDLSRYLEEEAVKLFIEFLR[Peg3]YGWLDF-NH2
B5: [Glu9,Leu14,Phe25,Tyr13]Exendin-4(1-27)-Orn-Orn-[Leu4]Gastrin6 (peptide)
peptide: HGEGTFTSELSKYLEEEAVRLFIEFLK[Orn][Orn]YGWLDF-NH2
modifications: N-terminus assumed
SMILES: CC[C@H](C)[C@H](NC(=O)[C@H](Cc1ccccc1)NC(=O)[C@H](CC(C)C)NC(=O)[C@H](CCCNC(=N)N)NC(=O)[C@@H](NC(=O)[C@H](C)NC(=O)[C@H](CCC(=O)O)NC(=O)[C@H](CCC(=O)O)NC(=O)[C@H](CCC(=O)O)NC(=O)[C@H](CC(C)C)NC(=O)[C@H](Cc1ccc(O)cc1)NC(=O)[C@H](CCCCN)NC(=O)[C@H](CO)NC(=O)[C@H](CC(C)C)NC(=O)[C@H](CCC(=O)O)NC(=O)[C@H](CO)NC(=O)[C@@H](NC(=O)[C@H](Cc1ccccc1)NC(=O)[C@@H](NC(=O)CNC(=O)[C@H](CCC(=O)O)NC(=O)CNC(=O)[C@@H](N)Cc1c[nH]cn1)[C@@H](C)O)[C@@H](C)O)C(C)C)C(=O)N[C@@H](CCC(=O)O)C(=O)N[C@@H](Cc1ccccc1)C(=O)N[C@@H](CC(C)C)C(=O)N[C@@H](CCCCN)C(=O)N[C@@H](CCCN)C(=O)N[C@@H](CCCN)C(=O)N[C@@H](Cc1ccc(O)cc1)C(=O)NCC(=O)N[C@@H](Cc1c[nH]c2ccccc12)C(=O)N[C@@H](CC(C)C)C(=O)N[C@@H](CC(=O)O)C(=O)N[C@@H](Cc1ccccc1)C(N)=O
B6: [Tyr13,Leu14,Phe25]Exendin-4(1-27)-Peg3-Peg3-[Leu4]Gastrin6 (peptide)
peptide: HGEGTFTSDLSKYLEEEAVRLFIEFLK[Peg3][Peg3]YGWLDF-NH2
B7: [Glu9,Leu14,Phe25,Tyr13]Exendin-4(1-27)-Orn-Peg3-[Leu4]Gastrin6 (peptide)
peptide: HGEGTFTSELSKYLEEEAVRLFIEFLK[Orn][Peg3]YGWLDF-NH2
B8: [Arg12,27,Leu14,Lys16,Phe25,Tyr13]Exendin-4(1-27)-Peg3-[Leu4]Gastrin6 (peptide)
peptide: HGEGTFTSDLSRYLEKEAVRLFIEFLR[Peg3]YGWLDF-NH2
B9: [Glu9,Leu14,Phe25,Tyr13]Exendin-4(1-27)-[Leu4]Gastrin6 (peptide)
peptide: HGEGTFTSELSKYLEEEAVRLFIEFLKYGWLDF-NH2
B10: [Glu9,Leu14,Phe25,Tyr13]Exendin-4(1-27)-[Leu2]Gastrin4 (peptide)
peptide: HGEGTFTSELSKYLEEEAVRLFIEFLKWLDF-NH2
B11: Exendin-4(1-28)-[Thr4]Gastrin6 (peptide)
peptide: HGEGTFTSDLSKQMEEEAVRLFIEWLKNYGWTDF
modifications: C-terminal amide
B12: Exendin-4(1-28)-[Phe4]Gastrin6 (peptide)
peptide: B11 peptide with T32F
modifications: C-terminal amide
B13: [Leu14]Exendin-4(1-28)-[Nle4]Gastrin6 (peptide)
peptide: B11 peptide with M14L, T32X
modifications: Nle at position 4 of the Gastrin6 moiety; C-terminal amide
B14: Exendin-4(1-28)-[Leu4]Gastrin6 (peptide)
peptide: B11 peptide with T32L
modifications: C-terminal amide
B15: [Leu14]Exendin-4(1-28)-[1Nal3,Leu4]Gastrin6 (peptide)
peptide: B11 peptide with M14L, W31X, T32L
modifications: 1Nal (1-naphthylalanine) at position 3 of the Gastrin6 moiety; C-terminal amide

target: human GLP-1 receptor (human, UniProt P43220 24-463); test: cell-based or functional assay

| Binder | hGLP-1 R EC50 (cAMP) [nM] |
| --- | --- |
| B1 | 0.11 |
| B2 | 0.13 |
| B3 | 0.026 |
| B4 | 0.058 |
| B5 | 0.11 |
| B6 | 0.044 |
| B7 | 0.12 |
| B8 | 0.17 |
| B9 | 0.11 |
| B10 | 1.2 |
| B11 | 0.044 |
| B12 | 0.044 |
| B13 | 0.052 |
| B14 | 0.061 |
| B15 | 0.04 |

target: T1, human CCK-B receptor; test: cell-based or functional assay

| Binder | hCCK-B R EC50 (p-ERK) [nM] |
| --- | --- |
| B1 | 860 |
| B2 | 36 |
| B4 | 26 |
| B5 | 16 |
| B7 | 100 |
| B8 | 26 |
| B9 | 30 |
| B10 | 211 |
| B11 | 58 |
| B12 | 140 |
| B13 | 24 |
| B14 | 14 |
| B15 | 270 |
